# Measurements as given in paper PMC3950343 (Genes & Development, 2014).
# Target: the molecule itself
# Test: SEC-MALS
protein,measurement,value
"Rad50-HK^WT (mouse Rad50 hook domain fragment, amino acids 591-773) (domain or fragment, UniProt P70388 591-773, looked up) RDRLAKLNKELASAEQNKNHINNELKKKEEQLSSYEDKLFDVCGSQDLESDLGRLKEEIEKSSKQRAMLAGATAVYSQFITQLTDENQSCCPVCQRVFQTEAELQEVISDLQSKLRLAPDKLKSTESELKKKERRRDEMLGLVPVRQSIIDLKEKEIPELRNRLQSVNRDIQRLKNDIEEQET",stoichiometry N,2
